From patent publication US20150210738, “MOLECULAR SLEDS AND USES […]” (The Broad Institute, Inc., published 2015)
No end group written: not given here.

T1: 8-Actin-C (beta-actin C-terminal peptide)
T1 chain: SIVHRKC(Cy3B)F

T2: random peptide (scrambled pVIc) (synthetic)
T2 chain: SFRRCGLRQVK

T3: pVIc (C-terminal peptide of pVI) (Human adenovirus 2, UniProt P03274)
T3 chain: GVQSLKRRRCF

B1: 12-mer dsDNA (dsDNA)
DNA 1: GACGACTAGGAT
DNA 2: ATCCTAGTCGTC
B2: 18-mer dsDNA (dsDNA)
DNA 1: CAGGAAACAGCTATGACC
DNA 2: GGTCATAGCTGTTTCCTG

Legend:
[1] = biological target: T1, 8-Actin-C (beta-actin C-terminal …); assay: FP; Cy3B-peptide, pH 7; conditions: protein: synthetic; tags: synthetic peptide; Cy3B at Cys7'; label: 5'-fluorescein (unlabeled with Cy3B-labeled protein)
[2] = biological target: pVI (precursor to protein VI) (Human adenovirus 2, UniProt P03274 P03274:1-250); assay: FP; 0.02 M NaCl, pH 8; 155, 328, 449, 1044 nM at 0.03, 0.04, 0.05, 0.06 M NaCl; 2.9 ion pairs; conditions: label: 5'-fluorescein (unlabeled with Cy3B-labeled protein)
Chain of pVI (precursor to protein VI) (P03274 whole entry, one chain of several): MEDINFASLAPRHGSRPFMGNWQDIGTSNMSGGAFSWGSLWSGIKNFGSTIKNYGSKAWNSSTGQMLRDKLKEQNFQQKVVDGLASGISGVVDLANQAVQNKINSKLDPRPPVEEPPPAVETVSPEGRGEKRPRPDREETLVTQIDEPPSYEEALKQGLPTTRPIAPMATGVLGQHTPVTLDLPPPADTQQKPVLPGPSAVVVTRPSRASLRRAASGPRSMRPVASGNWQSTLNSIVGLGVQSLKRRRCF

[3] = biological target: T2, random peptide (scrambled pVIc); assay: FP; scrambled pVIc; does not slide on DNA; conditions: tags: Cy3B at Cys5'; label: 5'-fluorescein (unlabeled with Cy3B-labeled protein)
[4] = biological target: T3, pVIc (C-terminal peptide of pVI); assay: FP; Cy3B-pVIc, 20 mM Hepes pH 7, 0.025% DDM, 10 mM NaCl; 7 bp site; conditions: protein: synthetic; tags: synthetic peptide; Cy3B at Cys10' in pH 7 and sliding assays; label: 5'-fluorescein (unlabeled with Cy3B-labeled protein)
[5] = biological target: (pVIc-biotin):streptavidin complex (Human adenovirus 2 / Streptomyces …, UniProt P03274;P22629 P03274:240-250,P22629:25-183); assay: FRET quenching, 20 mM Na phosphate pH 7.5, 0.05% DDM; conditions: tags: pVIc Cys10' PEG-biotin, streptavidin-Alexa Fluor 546 (Invitrogen); label: 5'-fluorescein
Chain of (pVIc-biotin):streptavidin complex (P22629 25-183, one chain of several): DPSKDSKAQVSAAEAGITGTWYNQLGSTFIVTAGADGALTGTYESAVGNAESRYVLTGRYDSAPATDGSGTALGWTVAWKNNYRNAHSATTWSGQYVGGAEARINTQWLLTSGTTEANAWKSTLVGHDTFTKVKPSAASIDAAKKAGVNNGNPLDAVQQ

[6] = biological target: streptavidin-Alexa Fluor 546 (UniProt P22629 P22629:25-183); assay: FRET; streptavidin alone does not bind; conditions: tags: Alexa Fluor 546; Invitrogen; chain copies: 4; label: 5'-fluorescein
Chain of streptavidin-Alexa Fluor 546 (P22629 25-183, one chain of several): as above
From the text: The relative fluorescence intensity is the fluorescence intensity at a specific concentration of acceptor divided by I₀ which is the initial fluorescence intensity, i.e. the intensity of the donor in the absence of acceptor. The line through the closed circles represents the nonlinear regression fit of the experimental data to a 1:1 ligand-receptor model. […] Both curves were corrected for inner filter effects, which were less than 10% at the highest concentration of acceptor.
Steady state fluorescence measurements were measured with an ISS PC1 spectrofluorometer (ISS, Champaign, Ill.) with a 300-W xenon arc lamp and 19 amp lamp current. […] The solution was mixed and allowed to equilibrate for 2 minutes before measuring the fluorescence intensity for a maximum of 10 seconds (corresponds to an average of eleven measurements).

Binder | Kd [1] | Kd [2] | Kd [3] | Kd [4] | Kd [5] | binding result [6]
B1 | 5 nM | 55 nM | 646 nM | 264 nM | – | –
B2 | – | – | – | – | 35 nM | no binding
